Assay results as given in PMC9482650, “Quantitative fragmentomics allow affinity mapping of interactomes” (Nature Communications, 2022).

How the values were obtained:
Experiment in all cases: holdup assay
Parameters in all cases: key: below the threshold = too weak to quantify, mostly under pKd 3.1 to 4
GRID2IP_1, A4D2P6 = biological target: GRID2IP_1, A4D2P6
SNTB1, Q13884 = biological target: T1, SNTB1, Q13884
T1 sequence (Q13884 107-205, limits assumed, looked up): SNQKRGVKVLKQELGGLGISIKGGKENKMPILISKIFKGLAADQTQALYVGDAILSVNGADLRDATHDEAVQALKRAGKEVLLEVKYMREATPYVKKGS

DLG2_3, Q15700 = biological target: DLG2_3, Q15700
SYNJ2BP, P57105 = biological target: T2, SYNJ2BP, P57105
T2 sequence (P57105 8-110, limits assumed, looked up): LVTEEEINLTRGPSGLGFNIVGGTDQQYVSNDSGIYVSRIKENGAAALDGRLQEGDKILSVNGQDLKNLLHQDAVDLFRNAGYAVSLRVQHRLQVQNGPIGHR

PTPN13_1, Q12923 = biological target: T3, PTPN13_1, Q12923
T3 sequence (Q12923 1088-1188, limits assumed, looked up): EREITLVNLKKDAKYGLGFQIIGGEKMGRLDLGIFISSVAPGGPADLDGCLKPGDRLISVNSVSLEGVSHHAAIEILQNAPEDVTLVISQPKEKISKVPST

ARHGAP21, Q5T5U3 = biological target: T4, ARHGAP21, Q5T5U3
T4 sequence (Q5T5U3 45-169, limits assumed, looked up): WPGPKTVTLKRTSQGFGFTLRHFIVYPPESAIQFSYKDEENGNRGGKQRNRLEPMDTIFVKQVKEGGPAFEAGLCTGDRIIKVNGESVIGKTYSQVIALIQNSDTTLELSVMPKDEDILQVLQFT

LRRC7, Q96NW7 = biological target: T5, LRRC7, Q96NW7
T5 sequence (Q96NW7 1440-1537, limits assumed, looked up): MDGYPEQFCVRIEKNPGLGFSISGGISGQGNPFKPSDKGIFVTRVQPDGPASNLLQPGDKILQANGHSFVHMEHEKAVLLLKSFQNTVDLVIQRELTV

RAPGEF6, Q8TEU7 = biological target: T6, RAPGEF6, Q8TEU7
T6 sequence (Q8TEU7 525-625, limits assumed, looked up): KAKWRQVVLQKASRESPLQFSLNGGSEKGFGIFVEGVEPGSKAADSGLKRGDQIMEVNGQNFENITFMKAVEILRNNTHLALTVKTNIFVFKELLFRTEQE

DLG4_3, P78352 = biological target: DLG4_3, P78352
PCLO, Q9Y6V0 = biological target: T7, PCLO, Q9Y6V0
T7 sequence (Q9Y6V0 4491-4600, limits assumed, looked up): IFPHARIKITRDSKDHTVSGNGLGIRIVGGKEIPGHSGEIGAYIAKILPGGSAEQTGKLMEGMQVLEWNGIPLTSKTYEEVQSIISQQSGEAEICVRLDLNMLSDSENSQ

DLG1_3, Q12959 = biological target: DLG1_3, Q12959
DLG1_2, Q12959 = biological target: DLG1_2, Q12959
GOPC, Q9HD26 = biological target: GOPC, Q9HD26
GRIP2_7, Q9C0E4 = biological target: GRIP2_7, Q9C0E4
DLG2_2, Q15700 = biological target: DLG2_2, Q15700
GIPC2, Q8TF65 = biological target: GIPC2, Q8TF65
MPDZ_5, O75970 = biological target: T8, MPDZ_5, O75970
T8 sequence (O75970 695-796, limits assumed, looked up): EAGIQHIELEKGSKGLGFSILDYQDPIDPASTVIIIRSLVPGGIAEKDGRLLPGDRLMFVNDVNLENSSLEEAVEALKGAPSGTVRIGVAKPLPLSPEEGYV

SIPA1L2, Q9P2F8 = biological target: T9, SIPA1L2, Q9P2F8
T9 sequence (Q9P2F8 945-1036, limits assumed, looked up): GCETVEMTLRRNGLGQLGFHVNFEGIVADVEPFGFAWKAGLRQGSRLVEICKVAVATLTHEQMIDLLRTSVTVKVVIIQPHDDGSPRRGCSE

FRMPD2_2, Q68DX3 = biological target: FRMPD2_2, Q68DX3
HTRA1, Q92743 = biological target: HTRA1, Q92743
PDZD7_3, Q9H5P4 = biological target: T10, PDZD7_3, Q9H5P4
T10 sequence (Q9H5P4 857-944, limits assumed, looked up): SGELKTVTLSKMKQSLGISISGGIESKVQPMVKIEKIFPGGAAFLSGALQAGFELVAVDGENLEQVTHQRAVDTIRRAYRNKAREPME

GRIP2_3, Q9C0E4 = biological target: GRIP2_3, Q9C0E4
PARD3B_1, Q8TEW8 = biological target: T11, PARD3B_1, Q8TEW8
T11 sequence (Q8TEW8 196-299, limits assumed, looked up): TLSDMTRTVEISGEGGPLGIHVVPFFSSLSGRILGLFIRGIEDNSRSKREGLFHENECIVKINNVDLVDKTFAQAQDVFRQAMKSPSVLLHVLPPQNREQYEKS

LIN7A, O14910 = biological target: T12, LIN7A, O14910
T12 sequence (O14910 103-200, limits assumed, looked up): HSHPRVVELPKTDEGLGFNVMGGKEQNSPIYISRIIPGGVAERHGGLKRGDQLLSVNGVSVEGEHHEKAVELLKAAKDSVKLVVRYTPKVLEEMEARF

Inadl_10, Q8NI35 = biological target: Inadl_10, Q8NI35
[1] = plain residues with an end cap or a label only (N-terminal biotin on a linker: ttds)
[2] = plain residues with an end cap or a label only (N-terminal biotin on a linker: ahx)

Chain of DLG1_2, Q12959 (Q12959 314-412): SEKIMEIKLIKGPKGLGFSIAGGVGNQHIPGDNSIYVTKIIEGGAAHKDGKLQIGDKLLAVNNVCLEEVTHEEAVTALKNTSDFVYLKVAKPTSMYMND
Chain of FRMPD2_2, Q68DX3 (Q68DX3 944-1038): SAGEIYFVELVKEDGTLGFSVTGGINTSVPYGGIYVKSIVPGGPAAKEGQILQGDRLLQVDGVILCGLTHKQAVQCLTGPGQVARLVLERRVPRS
Chain of Inadl_10, Q8NI35 (Q8NI35 1673-1763): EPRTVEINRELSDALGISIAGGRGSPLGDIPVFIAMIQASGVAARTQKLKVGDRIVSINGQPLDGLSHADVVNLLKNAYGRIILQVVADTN
Chain of GIPC2, Q8TF65 (Q8TF65 112-203): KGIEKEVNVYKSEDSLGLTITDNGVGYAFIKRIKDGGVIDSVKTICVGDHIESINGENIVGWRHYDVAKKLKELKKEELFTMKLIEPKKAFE
Chain of HTRA1, Q92743 (Q92743 360-477): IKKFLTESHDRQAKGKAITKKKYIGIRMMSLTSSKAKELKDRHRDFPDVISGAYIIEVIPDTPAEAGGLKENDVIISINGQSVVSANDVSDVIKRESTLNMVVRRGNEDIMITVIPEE
Chain of DLG4_3, P78352 (P78352 306-403): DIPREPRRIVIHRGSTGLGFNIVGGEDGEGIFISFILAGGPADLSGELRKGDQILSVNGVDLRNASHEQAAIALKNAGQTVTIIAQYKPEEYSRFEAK
Chain of GRIP2_3, Q9C0E4 (Q9C0E4 238-339): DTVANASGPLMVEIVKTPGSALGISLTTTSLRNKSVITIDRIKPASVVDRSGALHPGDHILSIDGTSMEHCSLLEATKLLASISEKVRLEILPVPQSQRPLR
Chain of DLG1_3, Q12959 (Q12959 457-571): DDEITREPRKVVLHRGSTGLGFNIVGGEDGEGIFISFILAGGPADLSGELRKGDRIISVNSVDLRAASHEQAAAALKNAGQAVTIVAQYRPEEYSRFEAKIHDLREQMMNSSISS
Chain of GRIP2_7, Q9C0E4 (Q9C0E4 934-1023): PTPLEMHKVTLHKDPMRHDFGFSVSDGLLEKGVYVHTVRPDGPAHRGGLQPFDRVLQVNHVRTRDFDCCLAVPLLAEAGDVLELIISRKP
Chain of GRID2IP_1, A4D2P6 (A4D2P6 1-87): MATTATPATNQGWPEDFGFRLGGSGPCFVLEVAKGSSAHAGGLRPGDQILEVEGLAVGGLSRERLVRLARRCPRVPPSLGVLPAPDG

RHTTSTETAV [HPV30-E6, P36809]
pKd (GRID2IP_1, A4D2P6; [1]): below the threshold
pKd (SNTB1, Q13884; [1]): 5.1
pKd (DLG2_3, Q15700; [1]): 4.79
pKd (SYNJ2BP, P57105; [1]): 5.36
pKd (PTPN13_1, Q12923; [1]): below the threshold
pKd (ARHGAP21, Q5T5U3; [1]): below the threshold
pKd (LRRC7, Q96NW7; [1]): below the threshold
pKd (RAPGEF6, Q8TEU7; [1]): below the threshold
pKd (DLG4_3, P78352; [1]): 4.35
pKd (PCLO, Q9Y6V0; [1]): below the threshold
pKd (DLG1_3, Q12959; [1]): 4.39
pKd (DLG1_2, Q12959; [1]): 5.63
pKd (GOPC, Q9HD26; [1]): 4.14
pKd (GRIP2_7, Q9C0E4; [1]): 3.84
pKd (DLG2_2, Q15700; [1]): 5.19
pKd (GIPC2, Q8TF65; [1]): 3.96
pKd (MPDZ_5, O75970; [1]): below the threshold
pKd (SIPA1L2, Q9P2F8; [1]): below the threshold
pKd (FRMPD2_2, Q68DX3; [1]): 4.23
pKd (HTRA1, Q92743; [1]): 3.73
pKd (PDZD7_3, Q9H5P4; [1]): 4.1
pKd (GRIP2_3, Q9C0E4; [1]): 3.61
pKd (PARD3B_1, Q8TEW8; [1]): below the threshold
pKd (LIN7A, O14910; [1]): 3.8
pKd (Inadl_10, Q8NI35; [1]): below the threshold

SSLQSLETSV [ATP2B4, P23634]
pKd (GRID2IP_1, A4D2P6; [1]): below the threshold
pKd (SNTB1, Q13884; [1]): 5.59
pKd (DLG2_3, Q15700; [1]): 4.88
pKd (SYNJ2BP, P57105; [1]): 5.66
pKd (PTPN13_1, Q12923; [1]): 3.5
pKd (ARHGAP21, Q5T5U3; [1]): below the threshold
pKd (LRRC7, Q96NW7; [1]): below the threshold
pKd (RAPGEF6, Q8TEU7; [1]): 3.72
pKd (DLG4_3, P78352; [1]): 4.65
pKd (PCLO, Q9Y6V0; [1]): below the threshold
pKd (DLG1_3, Q12959; [1]): 4.86
pKd (DLG1_2, Q12959; [1]): 5.43
pKd (GOPC, Q9HD26; [1]): below the threshold
pKd (GRIP2_7, Q9C0E4; [1]): 3.52
pKd (DLG2_2, Q15700; [1]): 5.08
pKd (GIPC2, Q8TF65; [1]): 4.16
pKd (MPDZ_5, O75970; [1]): 3.58
pKd (SIPA1L2, Q9P2F8; [1]): below the threshold
pKd (FRMPD2_2, Q68DX3; [1]): 4.64
pKd (HTRA1, Q92743; [1]): 3.9
pKd (PDZD7_3, Q9H5P4; [1]): 4.48
pKd (GRIP2_3, Q9C0E4; [1]): below the threshold
pKd (PARD3B_1, Q8TEW8; [1]): below the threshold
pKd (LIN7A, O14910; [1]): 4.04
pKd (Inadl_10, Q8NI35; [1]): below the threshold

GYDWGPATDL [TJP3, O95049]
pKd (GRID2IP_1, A4D2P6; [2]): below the threshold
pKd (SNTB1, Q13884; [2]): 4.08
pKd (DLG2_3, Q15700; [2]): 3.52
pKd (SYNJ2BP, P57105; [2]): below the threshold
pKd (PTPN13_1, Q12923; [2]): below the threshold
pKd (ARHGAP21, Q5T5U3; [2]): below the threshold
pKd (LRRC7, Q96NW7; [2]): 3.7
pKd (RAPGEF6, Q8TEU7; [2]): below the threshold
pKd (DLG4_3, P78352; [2]): below the threshold
pKd (PCLO, Q9Y6V0; [2]): below the threshold
pKd (DLG1_3, Q12959; [2]): below the threshold
pKd (DLG1_2, Q12959; [2]): 3.61
pKd (GOPC, Q9HD26; [2]): 3.93
pKd (GRIP2_7, Q9C0E4; [2]): below the threshold
pKd (DLG2_2, Q15700; [2]): below the threshold
pKd (GIPC2, Q8TF65; [2]): 3.73
pKd (MPDZ_5, O75970; [2]): below the threshold
pKd (SIPA1L2, Q9P2F8; [2]): below the threshold
pKd (FRMPD2_2, Q68DX3; [2]): 3.54
pKd (HTRA1, Q92743; [2]): 4.12
pKd (PDZD7_3, Q9H5P4; [2]): 4.14
pKd (GRIP2_3, Q9C0E4; [2]): below the threshold
pKd (PARD3B_1, Q8TEW8; [2]): 3.65
pKd (LIN7A, O14910; [2]): 3.66
pKd (Inadl_10, Q8NI35; [2]): 3.62

RLPKIKETTV [FRMPD4, Q14CM0]
pKd (GRID2IP_1, A4D2P6; [1]): below the threshold
pKd (SNTB1, Q13884; [1]): 5.17
pKd (DLG2_3, Q15700; [1]): 5.15
pKd (SYNJ2BP, P57105; [1]): 5.47
pKd (PTPN13_1, Q12923; [1]): below the threshold
pKd (ARHGAP21, Q5T5U3; [1]): below the threshold
pKd (LRRC7, Q96NW7; [1]): 3.58
pKd (RAPGEF6, Q8TEU7; [1]): below the threshold
pKd (DLG4_3, P78352; [1]): 5.25
pKd (PCLO, Q9Y6V0; [1]): below the threshold
pKd (DLG1_3, Q12959; [1]): 5.3
pKd (DLG1_2, Q12959; [1]): 6.06
pKd (GOPC, Q9HD26; [1]): 3.83
pKd (GRIP2_7, Q9C0E4; [1]): below the threshold
pKd (DLG2_2, Q15700; [1]): 5.5
pKd (GIPC2, Q8TF65; [1]): below the threshold
pKd (MPDZ_5, O75970; [1]): below the threshold
pKd (SIPA1L2, Q9P2F8; [1]): below the threshold
pKd (FRMPD2_2, Q68DX3; [1]): below the threshold
pKd (HTRA1, Q92743; [1]): 3.64
pKd (PDZD7_3, Q9H5P4; [1]): 5.01
pKd (GRIP2_3, Q9C0E4; [1]): below the threshold
pKd (PARD3B_1, Q8TEW8; [1]): 3.45
pKd (LIN7A, O14910; [1]): 4.38
pKd (Inadl_10, Q8NI35; [1]): below the threshold
